This note sets out measurements from patent US20020183271A1, “Methods of treatment involving human MDA-7” (priority 2000, published 2002).

Assay [1] has as its system secretion of soluble MDA-7 protein. Briefly: Inhibition of glycosylation and secretion of MDA-7 protein. It is filed as cell-based. The text has this:
Two antibiotics, Tunicamycin and Brefeldin A, have been used to provide a more detailed characterization of the secretion of soluble MDA-7. N-linked glycosylation plays an important role in a protein's ultimate processing, whether it is sorted to a lysosomal pathway, or translocated to the cell surface or secreted. Using Tunicamycin, the N-linked glycosylation process in the […] can be inhibited, thus inhibiting protein secretion or other sugar-dependent sorting processes.

Assay [2] deals with T47D. The assay can be described thus: Ad-mda7 growth inhibition, 3H-thymidine incorporation assay. The assay is classed as cell-based, human. Conditions: T47D cells; four days after treatment. As to the method: (§1) Cells were either plated at 500-2000 cells/well in 96-well format for Tritiated thymidine incoporation-Cell Proliferation Assay or plated at 10^5-10^6 cells/well in a 6 well plate for protein expression or Apoptosis assays or plated at 10^4 cells/well for Alamar-blue assay. […]
(§2) Growth inhibition of cells after treatment is measured by analysis of DNA-synthesis. Briefly, for the ^3H-thymidine incorporation assay cells will be plated at 200-5000 cell per well in a 96-well format and grown in DMEM/10% FBS in a 5% CO2 incubator at 37° C. overnight. The next day the media is aspirated and replace with […] DMEM/10% FBS containing the appropriate adenovirus at the appropriate MOI. Cells will be incubated with infecting media for 1 to 4 hrs and then diluted to […] total volume and grown overnight. Media is replaced with DMEM/10% FBS/mCi ^3H-thymidine and grown for 16 to 18 hrs. Stock solution of 100 uCi/mL of H3-thymidine (Amersham) is prepared by dilution into high glucose DMEM (GIBCO). ^3H-Thymidine was added to each well at a final concentration of 1 μCi/mL. The reaction is stopped 15 hours later by removal of the supernatant from recipient cells. […] The filter were dried and analyzed in Matrix 9600 (Packard) and cell proliferation using Viral Particles/cell against Tritiated Thymidine uptake counts were plotted.
Background: Incorporation of labelled thymidine or its analogues reports DNA synthesis.

The test system of assay [3] is MCF-7. The assay is described as above. It is filed as cell-based, human. Conditions: MCF-7 cells; four days after treatment; tamoxifen 1 ng/ml. On the procedure:
as §1, §2

Assay [4] relates to H1299 cells. Briefly: Soluble MDA-7 supernatant killing, trypan blue exclusion. The assay is classed as cell-based, human. Conditions: supernatants, 48 hours. On the procedure:
FIG. 11A. Soluble MDA-7 (sMDA7) kills tumor cells. […] All the supernatants used in this experiment were filtered through a 0.1 micron filter prior to challenge with H1299 cells. FIG. 11B. H1299 cells were challenged with soluble MDA-7 supernatant from four different stocks and percentage dead cells evaluated after 48 hours: 1) 293*NF: Non-filtered supernatant obtained from modified 293 cells (cells were grown in serum-free conditions); 2) 293*F: 0.1 micron filtered supernatant obtained from modified 293 cells; 3) 293F: 0.1 micron filtered supernatant obtained from regular 293 cells (FBS+); and 4) H1299F: 0.1 micron filtered supernatant obtained from H1299 cells. D0 is non-diluted material whereas D1:1; D1:5, D1:10 indicate the dilutions used.
The secreted form of MDA-7 (sMDA-7) was produced using various cell lines and evaluated for anti-tumor activity. Soluble MDA-7 was analyzed for its anti-proliferative effects on H1299 cells. Briefly, H1299 cells were plated at cell density of 10^3 cells/chamber in Nunc chamber slides. 24 hours later, the cells were challenged with supernatants obtained from H1299 cells transduced with either Ad-mda-7 or Ad-luc (at 1000 vp/cell infection). Ad-mda7 and Ad-luc viruses were also used as additional controls. […]

Assay [5] has as its system PBMC. Briefly: Secondary cytokine secretion from PBMC (ELISA). It is filed as cell-based, human. As to the method:
FIG. 24. Effect of MDA-7 and IL-10 on inflammatory cytokine secretion from PBMC. Two ml/well (2×10^6 cells/ml) PBMC were plated in a 24 well plate and cultured untreated or with indicated amounts of MDA-7 (B 2 ng/ml; D,F 20 ng/ml), 5 μg/ml LPS, 5 μg/ml PHA, 500 U/ml IL-10 (˜17 ng/ml; R & D Systems, Minneapolis, Minn.) or combination of IL-10 and MDA-7. Supernatants were harvested at 48 hours and analyzed for cytokine content by ELISA (Endogen, Corp) according to manufacturer's instructions. Data from one representative donor are reported. * Indicates values above standard curve.
FIG. 25. […] Human PBMC were treated with 5 μg/ml LPS, 500 U/ml IL-10, 5 ng/ml MDA-7 or combinations for 48 hours. An equal volume of an S column fraction not containing MDA-7 as determined by Western (an MDA-7 Neg Fraction) was used as a control for buffer/salt content. Supernatants were harvested at 48 hours and analyzed for cytokine content by ELISA (Endogen, Corp) according to manufacturer's instructions. Data from one representative donor are reported. * Indicates value greater than 500 pg/ml IL-1β. ** Actual values are 539 pg/ml IL-12 and 893 pg/ml GM-CSF. Data from one representative donor are reported.
Activation of PBMC: PBMC were isolated from the peripheral blood of normal healthy donors by centrifugation over Histopaque (Sigma, St. Louis, Mo.). Cells were cultured at a concentration of 1×10^6 cells/ml in RPMI-1640 based media supplemented with L-glutamine, Hepes, penicillin, streptomycin, and 10% human AB serum (Pelfreez, Brown Deer, Wis.) for 72 hr in the presence of PHA-P at 5 μg/ml or LPS 10 μg/ml (both from Sigma, St. Louis, Mo.). Four hours prior to harvest Brefeldin A (BFA, Sigma-Aldrich) was added at a final concentration of 10 μg/ml. The supernatants as well as cells were then harvested.
ELISA assays. The ELISA reaction to detect human MDA-7 was carried out in 96-well plates using standard techniques and an antibody pair selected for sentivity. Elisa assays for cytokines were perfomed in an identical manner, employing commercially available kits as designated in the figure legends.
(ELISA stands for enzyme-linked immunosorbent assay.)

Assay [6] relates to HUVEC cells. The assay can be described thus: Tube formation with purified MDA-7 protein. The assay is classed as cell-based, human. As to the method: HUVEC cells were administered increasing amounts of MDA-7 protein purified from 293-mda7 cells. Doses that were evaluated ranged from 0.5-100 ng/ml. The ED50 of MDA-7 ranged from 5-50 ng/ml. Endothelial differentiation in the cells was inhibited by MDA-7 protein, but not control cells, based on tube formation.
HUVEC cells were given varying doses of MDA-7 protein purified from 293-mda7 cells (lots 1-6) or from baculovirus exoressing mda-7. A positive control of Ad-mda7 and a negative control of Ad-luc were included in most assays.

Assay [7] has as its system PBMC. Briefly: PBMC proliferation (thymidine uptake). It is filed as cell-based, human. Conditions: 4 days of coculture; three donors. The text has this:
Some cytokines can also function as growth factors. Therefore the proliferative simulation function of MDA-7 was addressed using PBMC. IL-10 was included as a negative cytokine control.

[8] abbreviates: 500 U/ml IL-10, 5 ng/ml MDA-7, 48 hours.
[9] abbreviates: 500 U/ml IL-10 added to PBMC stimulated by MDA-7.

As to `C[C@H]1CCC/C=C/[C@@H]2C[C@H](O)C[C@H]2[C@H](O)/C=C/C(=O)O1` [Brefeldin A], the “secretion of soluble MDA-7 protein” value in assay [1] is “effectively inhibit the secretion of soluble MDA-7 protein”.

Turning to `CC/C(=C(\c1ccccc1)c1ccc(OCCN(C)C)cc1)c1ccccc1` [tamoxifen], the “DNA replication (tritiated thymidine assay)” value in assay [2] is “minimal effect”; in assay [3], “little effect”.

On to Tunicamycin, for which the “secretion of soluble MDA-7 protein” value in assay [1] is on record as “effectively inhibit the secretion of soluble MDA-7 protein”.

B1: soluble MDA-7: secreted form of MDA-7 in filtered supernatants of cells transduced with Ad-mda7 (protein, UniProt Q13007 52-206, looked up)
Interleukin-24: QEFHFGPCQVKGVVPQKLWEAFWAVKDTMQAQDNITSARLLQQEVLQNVSDAESCYLVHTLLEFYLKTVFKNYHNRTVEVRTLKSFSTLANNFVLIVSQLQPSQENEMFSIRDSAHRRFLLFRRAFKQLDVEAALTKALGEVDILLTWMQKFYKL
Take B1: the “killing of H1299 cells” value in assay [4] is listed as “concentration-dependent bystander killing effect”; in assay [4] (listed as soluble MDA-7 protein), “showed H1299 killing”.

B2: MDA-7: human MDA-7 protein secreted by and purified from stably transfected 293 cells (293-mda7) (protein)
chain: B1 Interleukin-24
Take B2: the IL-6 secretion entry in assay [5] (2 ng/ml of MDA-7, above the standard curve of the ELISA kit) is listed as “greater than 800 pg/ml”. The “IL-1β, IL-12 and GM-CSF secretion” value in assay [5] (5 ng/ml MDA-7, 48 hours) is “induces IL-1β, IL-12 and GM-CSF secretion”. For the same molecule, in assay [5] (48 hours, ELISA), the “MDA-7 concentration stimulating maximal IL-6 secretion” value stood at 200 pg/mL; the “dose required to achieve optimal levels of TNFα and IFNγ secretion” value is 2 ng/mL. In addition, the “induction of TNFα compared with LPS” value in assay [5] (LPS 5 μg/ml positive control) is “more potent inducer than the positive stimulation control LPS”. Also, in assay [6] (MDA-7 protein from 293-mda7 cells (lots 1-6) or baculovirus), the “lowest doses inhibiting tube formation” value was in the range of 0.5 to 10 ng/mL. Further, the “ED50 (inhibition of endothelial differentiation, tube formation)” value in assay [6] (MDA-7 protein purified from 293-mda7 cells, doses 0.5-100 ng/ml) was in the range of 5 to 50 ng/mL. Besides, the “proliferation (thymidine uptake)” value in assay [7] is “did not induce significant proliferation”.

B3: recombinant MDA-7 expressed in E. coli and S. cerevisiae: recombinant MDA-7 expressed in E. coli and S. cerevisiae, used in preliminary experiments (protein, UniProt Q13007 52-206, looked up)
Interleukin-24: B1 Interleukin-24
Take B3: the “secondary cytokine production, preliminary experiments” value in assay [5] (very high doses (μg/ml quantities) required) is “robust production of IL-6, TNFα, and IFNγ, very low levels of GM-CSF and IL-10, and no IL-2, IL-4, and IL-5”. In addition, the “proliferation (thymidine uptake)” value in assay [7] is listed as “did not show a proliferative response”.

B4: IL-10: Human recombinant IL-10 purchased from R&D Systems (protein, UniProt P22301 19-178, looked up)
Interleukin-10: SPGQGTQSENSCTHFPGNLPNMLRDLRDAFSRVKTFFQMKDQLDNLLLKESLLEDFKGYLGCQALSEMIQFYLEEVMPQAENQDPDIKAHVNSLGENLKTLRLRLRRCHRFLPCENKSKAVEQVKNAFNKLQEKGIYKAMSEFDIFINYIEAYMTMKIRN
As for B4, in assay [5] (setting [8]), the “effect of IL-10 on GM-CSF production” value is “partially inhibited”, the “effect of IL-10 on IL-1β production” value is “partially inhibited” and the “effect of IL-10 on IL-12 production” value is recorded as “completely inhibited”. For the same molecule, in assay [5] (setting [9]), the “effect of IL-10 on IFNγ induction by MDA-7” value is “completely abrogated”, the “effect of IL-10 on IL-6 induction by MDA-7” value is recorded as “partially blocked” and the “effect of IL-10 on TNFα induction by MDA-7” value is “completely abrogated”. Besides, the “proliferation (thymidine uptake)” value in assay [7] is listed as “did not induce increased thymidine uptake”.
